Laboratory results: patent publication US20240226296A9, “ERT2 MUTANTS AND USES THEREOF” (Senti Biosciences, Inc., priority 2021, published 2024)
Positions count from the first letter of the chain named. Names may count otherwise.

Key:
[1] = following a typical clinical dose of tamoxifen; cited from earlier work
NK cells = assay: Validation of ERT2 mutants with mCherry reporter in NK cells; assay type: cell-based; details: primary NK cells
Procedure: After 10 days of feeder cell activation, NK cells were co-transduced with ERT2 mutant virus and reporter SB01066 virus (Experimental Set-up 1). On Day 2 after transduction, transduced NK cells were treated with endoxifen or 4-OHT at a range of concentrations of 0 nM, 0.01 nM, 0.1 nM, 1 nM, and 10 nM. On Day 4, cells were checked for mCherry expression by flow cytometry.

CC/C(=C(\c1ccccc1)c1ccc(OCCN(C)C)cc1)c1ccccc1 [tamoxifen]
average peak plasma concentration [1]: approximately 40 ng/mL

B1: SB06142: L354I/L391V/N413D/M421L/S463P/M517A/H524L (protein)
chain: SAGDMRAANLWPSPLMIKRSKKNSLALSLTADQMVSALLDAEPPILYSEYDPTRPFSEASMMGLLTNLADREIVHMINWAKRVPGFVDLTLHDQVHLLECAWLEILMIGVVWRSMEHPVKLLFAPNLLLDRDQGKCVEGLVEIFDMLLATSSRFRMMNLQGEEFVCLKSIILLNSGVYTFLPSTLKSLEEKDHIHRVLDKITDTLIHLMAKAGLTLQQQHQRLAQLLLILSHIRHASNKGMELLYSMKCKNVVPLYDLLLEAADAHRLHAPTSRGGASVEETDQSHLATAGSTSSHSLQKYYITGEAEGFPATA
4-OHT concentration at which variant is sensitive (NK cells): 0.1 nM
endoxifen concentration at which variant is sensitive (NK cells): 0.1 nM

B2: SB06136: L384M/L391V/N413D/M421L/S463P/H524L (protein)
chain: B1 chain with I73L, L103M, A236M
4-OHT concentration at which variant is sensitive (NK cells): 0.1 nM
endoxifen concentration at which variant is sensitive (NK cells): 0.1 nM

B3: SB06145: L409V/N413D/Q414E/M421L/S463P/H524L (protein)
chain: B1 chain with I73L, V110L, L128V, Q133E, A236M
4-OHT concentration at which variant is sensitive (NK cells): 0.1 nM
endoxifen concentration at which variant is sensitive (NK cells): 0.1 nM
